Where two headings read alike, the source gives them in different places. One block for each binder: values may come before it.
What was measured:
[1] = molecular target: T1, human CCR8 (human, UniProt P51685 1-355); test: cell-based or functional assay
[2] = molecular target: T1, human CCR8; test: cell-based or functional assay; remark: listed apart in the source
[3] = molecular target: T2, loop1 hCCR4-hCCR8 (human, UniProt P51685 1-355); test: flow cytometry, transfected Expi293 cells; Δ = significantly reduced vs hCCR8
T2 construct: chimera on Expi293 cells; hCCR8 ranges derived; also called loop 1-human CCR4-substituted human CCR8

[4] = molecular target: T3, loop2 hCCR4-hCCR8 (human, UniProt P51685 1-355); test: as above
T3 construct: chimera on Expi293 cells; hCCR8 ranges derived; also called loop2-human CCR4-substituted human CCR8

[5] = molecular target: T1, human CCR8; test: cell-based or functional assay; remark: listed apart in the source
[6] = molecular target: T4, N-ter hCCR4-hCCR8 (human); test: flow cytometry, transfected Expi293 cells
T4 construct: chimera on Expi293 cells; remaining hCCR8 ranges derived from the stated swapped ranges and the 355-residue length; also called N-terminal region human CCR4-substituted human CCR8
T4 chain: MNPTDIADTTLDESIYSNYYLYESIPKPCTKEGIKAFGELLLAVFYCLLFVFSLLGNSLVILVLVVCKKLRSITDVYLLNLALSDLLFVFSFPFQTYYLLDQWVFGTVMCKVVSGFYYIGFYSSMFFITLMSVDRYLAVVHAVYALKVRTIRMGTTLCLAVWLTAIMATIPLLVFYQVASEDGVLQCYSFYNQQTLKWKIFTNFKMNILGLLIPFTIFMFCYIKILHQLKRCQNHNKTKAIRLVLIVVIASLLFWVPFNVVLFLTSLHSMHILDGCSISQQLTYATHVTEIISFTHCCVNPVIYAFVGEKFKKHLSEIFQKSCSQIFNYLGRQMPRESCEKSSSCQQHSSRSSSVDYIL

[7] = molecular target: T5, human CCR4 (human, UniProt P51679 1-360); test: flow cytometry, transfected Expi293 cells
T5 construct: also called hCCR4
T5 sequence: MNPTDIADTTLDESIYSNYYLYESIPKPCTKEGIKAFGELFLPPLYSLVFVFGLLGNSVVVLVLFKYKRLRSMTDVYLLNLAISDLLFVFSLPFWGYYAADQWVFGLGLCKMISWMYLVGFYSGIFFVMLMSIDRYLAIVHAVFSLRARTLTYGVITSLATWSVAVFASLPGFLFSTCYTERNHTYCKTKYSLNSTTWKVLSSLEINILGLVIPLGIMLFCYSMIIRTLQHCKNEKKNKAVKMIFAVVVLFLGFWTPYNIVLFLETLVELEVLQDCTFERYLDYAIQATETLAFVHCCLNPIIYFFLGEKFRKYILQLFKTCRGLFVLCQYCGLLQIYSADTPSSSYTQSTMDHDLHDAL

[8] = molecular target: T6, mouse CCR8 (mouse, UniProt P56484 1-353); test: flow cytometry, transfected Expi293 cells
T6 construct: also called mCCR8
T6 sequence: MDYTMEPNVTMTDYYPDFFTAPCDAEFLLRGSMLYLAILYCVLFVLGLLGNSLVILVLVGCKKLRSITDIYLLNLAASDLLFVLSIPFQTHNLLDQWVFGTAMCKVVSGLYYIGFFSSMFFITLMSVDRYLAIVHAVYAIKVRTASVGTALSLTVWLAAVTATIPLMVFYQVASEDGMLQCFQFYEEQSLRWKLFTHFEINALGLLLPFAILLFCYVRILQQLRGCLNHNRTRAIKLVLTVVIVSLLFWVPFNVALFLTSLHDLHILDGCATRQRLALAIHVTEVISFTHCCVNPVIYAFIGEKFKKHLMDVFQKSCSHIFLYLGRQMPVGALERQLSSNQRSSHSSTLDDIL

[9] = molecular target: hCCR8 (Y17A) (human, UniProt P51685 1-355); test: flow cytometry, transfected Expi293 cells
Sequence of hCCR8 (Y17A) (P51685 whole entry Y17A): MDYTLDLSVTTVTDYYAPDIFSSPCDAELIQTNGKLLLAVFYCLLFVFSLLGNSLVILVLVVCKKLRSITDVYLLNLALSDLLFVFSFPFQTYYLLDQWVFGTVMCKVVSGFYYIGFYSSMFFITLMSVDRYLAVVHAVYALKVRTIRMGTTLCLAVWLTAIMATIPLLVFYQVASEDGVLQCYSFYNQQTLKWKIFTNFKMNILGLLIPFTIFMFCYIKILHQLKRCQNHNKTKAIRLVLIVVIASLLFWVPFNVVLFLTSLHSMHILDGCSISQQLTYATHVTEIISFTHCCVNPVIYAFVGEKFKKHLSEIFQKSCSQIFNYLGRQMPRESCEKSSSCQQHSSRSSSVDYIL

[10] = molecular target: T1, human CCR8; test: cell-based or functional assay; remark: listed apart in the source

T1 sequence (P51685 whole entry): as the sequence (P51685 whole entry Y17A) above, with A17Y counted along it

B3: h10A11 (IGKV1-39/IGHV3-73) (antibody, V domains shown)
VH: EVQLVESGGGLVQPGGSLKLSCAASGFAFNTYALYWVRQASGKGLEWVGRIRSKSNNYATYYADSVKDRFTISRDDSKNTAYLQMNSLKTEDTAVYYCTRARFYYSDYGYAMDYWGQGTLVTVSS
VL: DIQMTQSPSSLSASVGDRVTITCRSSKSLLHSNGNTYLYWYQQKPGKAPKLLIYRMSNLASGVPSRFSGSGSGTDFTLTISSLQPEDFATYYCMQHLEYPLTFGQGTKLEIKR
IC50 (nM), Ca2+ influx by 200 nM hCCL1 [1]: 0.16 nM

B5: h10A11 (IGKV2-28/IGHV3-73) (antibody, V domains shown)
VH: EVQLVESGGGLVQPGGSLKLSCAASGFAFNTYALYWVRQASGKGLEWVGRIRSKSNNYATYYADSVKDRFTISRDDSKNTAYLQMNSLKTEDTAVYYCTRARFYYSDYGYAMDYWGQGTLVTVSS
VL: DIVMTQSPLSLPVTPGEPASISCRSSKSLLHSNGNTYLYWYLQKPGQSPQLLIYRMSNLASGVPDRFSGSGSGTDFTLKISRVEAEDVGVYYCMQHLEYPLTFGQGTKVEIKR
IC50 (nM), Ca2+ influx by 200 nM hCCL1 [1]: 0.2 nM

B7: h10A11 (IGKV1-39/IGHV3-15 T94R) (antibody, V domains shown)
VH: EVQLVESGGALVKPGGSLRLSCAASGFTFSTYALYWVRQAPGKGLEWVGRIRSKSNNYATYYADSVKDRFTISRDDSKNTLYLQMNSLKTEDTAVYYCTRARFYYSDYGYAMDYWGQGTLVTVSS
VL: DIQMTQSPSSLSASVGDRVTITCRSSKSLLHSNGNTYLYWYQQKPGKAPKLLIYRMSNLASGVPSRFSGSGSGTDFTLTISSLQPEDFATYYCMQHLEYPLTFGQGTKLEIKR
IC50 (nM), Ca2+ influx by 200 nM hCCL1 [1]: 0.2 nM

B8: h10A11 (IGKV1-16/IGHV3-15 T94R) (antibody, V domains shown)
VH: EVQLVESGGALVKPGGSLRLSCAASGFTFSTYALYWVRQAPGKGLEWVGRIRSKSNNYATYYADSVKDRFTISRDDSKNTLYLQMNSLKTEDTAVYYCTRARFYYSDYGYAMDYWGQGTLVTVSS
VL: DIQMTQSPSSLSASVGDRVTITCRSSKSLLHSNGNTYLYWFQQKPGKAPKSLIYRMSNLASGVPSRFSGSGSGTDFTLTISSLQPEDFATYYCMQHLEYPLTFGQGTKLEIKR
IC50 (nM), Ca2+ influx by 200 nM hCCL1 [1]: 0.7 nM

B12: 27G1 (antibody, V domains shown)
VH: EVQLVESGGRLVQPKGSLKLSCAASGFAFNTYAMYWIRQAPGKGLEWVARIRSKSNNYATYYADSVKDRFTISRDDSQSMLYLQMNNLKTEDTAMYYCVRARFYYSDYGYAMDYWGQGTSVTVSS
VL: DIVMTQAAPSVPVTPGESVSISCRSSKSLLHSNGNTYLYWFLQRPGQSPQLLIYRMSNLASGVPDRFSGSGSGTAFTLRISRVEAEDVGVYYCMQHLEYPLTFGAGTKLELKR
notes: mouse hybridoma antibody
binding result [3]: binds | binding result [4]: binds | Neutralizing Activity IC50 (nM), Ca2+ influx by 100 nM hCCL1 [5]: 0.09 nM | binding result [6]: no binding | binding result [7]: no binding | binding result [8]: no binding | binding result [9]: no binding

B13: 10A11 (antibody, V domains shown)
VH: EVQLVESGGRLVQPKGSLKLSCAASGFAFNTYALYWIRQAPGKGLEWVARIRSKSNNYATYYADSVKDRFTISRDDSQSMLYLQMNNLKTEDTAMYYCVRARFYYSDYGYAMDYWGQGTSVTVSS
VL: DIVMTQAAPSVPVTPGESVSISCRSSKSLLHSNGNTYLYWFLQRPGQSPQLLIYRMSNLASGVPDRFSGSGSGTAFTLRISRVEAEDVGVYYCMQHLEYPLTFGAGTKLELKR
notes: mouse hybridoma antibody; also called m10A11; clone No. 10A11
binding result [3]: binds | binding result [4]: binds | Neutralizing Activity IC50 (nM), Ca2+ influx by 100 nM hCCL1 [5]: 0.08 nM | binding result [6]: no binding | binding result [7]: no binding | binding result [8]: no binding | binding result [9]: no binding | IC50 (nM), Ca2+ influx by 200 nM hCCL1 [10]: 0.23 nM | IC50 (nM), Ca2+ influx by 200 nM hCCL1 [1]: 0.23 nM

B14: 2-7B (antibody, V domains shown)
VH: EVQLVESDGGLVQPGRSLKLSCAASGFTFSDYYMAWVRQAPTKGLEWVATITYDVYSTYYRDSVKGRFTISRDNAKSTLYLQMDSLRSEDTATYYCARHGGDGYNSGNWFAYWGQGTLVTVSS
VL: DIVLTQSPALAVSLGQRATISCRASQSVSISRYNIMHWYQQKPGQQPKLLIYRASNLASGIPARFSGSGSGTDFTLTINPVQADDIATYYCQQSRESPPTFGGGTKLELKR
IC50 (nM), Ca2+ influx by 200 nM hCCL1 [10]: 0.23 nM

Results, then the binder that gave them:

IC50 (nM), Ca2+ influx by 200 nM hCCL1 [1]: 0.16 nM
B1: h10A11 (IGKV3-20/IGHV3-15 T94R) (antibody, V domains shown)
VH: EVQLVESGGALVKPGGSLRLSCAASGFTFSTYALYWVRQAPGKGLEWVGRIRSKSNNYATYYADSVKDRFTISRDDSKNTLYLQMNSLKTEDTAVYYCTRARFYYSDYGYAMDYWGQGTLVTVSS
VL: EIVLTQSPGTLSLSPGERATLSCRSSKSLLHSNGNTYLYWYQQKPGQAPRLLIYRMSNLASGIPDRFSGSGSGTDFTLTISRLEPEDFAVYYCMQHLEYPLTFGQGTKVEIKR

IC50 (nM), Ca2+ influx by 200 nM hCCL1 [2]: 0.21 nM
B2: h10A11 IGKV3-20 N53Q, G29L/IGHV3-15 T94R (antibody, V domains shown)
VH: EVQLVESGGALVKPGGSLRLSCAASGFTFSTYALYWVRQAPGKGLEWVGRIRSKSNNYATYYADSVKDRFTISRDDSKNTLYLQMNSLKTEDTAVYYCTRARFYYSDYGYAMDYWGQGTLVTVSS
VL: EIVLTQSPGTLSLSPGERATLSCRSSKSLLHSNLNTYLYWYQQKPGQAPRLLIYRMSQLASGIPDRFSGSGSGTDFTLTISRLEPEDFAVYYCMQHLEYPLTFGQGTKVEIKR

IC50 (nM), Ca2+ influx by 200 nM hCCL1 [2]: 0.19 nM
B4: h10A11 IGKV3-20 N53Q, G29R/IGHV3-15 T94R (antibody, V domains shown)
VH: EVQLVESGGALVKPGGSLRLSCAASGFTFSTYALYWVRQAPGKGLEWVGRIRSKSNNYATYYADSVKDRFTISRDDSKNTLYLQMNSLKTEDTAVYYCTRARFYYSDYGYAMDYWGQGTLVTVSS
VL: EIVLTQSPGTLSLSPGERATLSCRSSKSLLHSNRNTYLYWYQQKPGQAPRLLIYRMSQLASGIPDRFSGSGSGTDFTLTISRLEPEDFAVYYCMQHLEYPLTFGQGTKVEIKR

IC50 (nM), Ca2+ influx by 200 nM hCCL1 [1]: 0.3 nM
B6: h10A11 (IGKV2-40/IGHV3-15 T94R) (antibody, V domains shown)
VH: EVQLVESGGALVKPGGSLRLSCAASGFTFSTYALYWVRQAPGKGLEWVGRIRSKSNNYATYYADSVKDRFTISRDDSKNTLYLQMNSLKTEDTAVYYCTRARFYYSDYGYAMDYWGQGTLVTVSS
VL: DIVMTQTPLSLPVTPGEPASISCRSSKSLLHSNGNTYLYWYLQKPGQSPQLLIYRMSNLASGVPDRFSGSGSGTDFTLKISRVEAEDVGVYYCMQHLEYPLTFGQGTKLEIKR

IC50 (nM), Ca2+ influx by 200 nM hCCL1 [1]: 0.21 nM
B9: h10A11 (IGKV2-40/IGHV3-73) (antibody, V domains shown)
VH: EVQLVESGGGLVQPGGSLKLSCAASGFAFNTYALYWVRQASGKGLEWVGRIRSKSNNYATYYADSVKDRFTISRDDSKNTAYLQMNSLKTEDTAVYYCTRARFYYSDYGYAMDYWGQGTLVTVSS
VL: DIVMTQTPLSLPVTPGEPASISCRSSKSLLHSNGNTYLYWYLQKPGQSPQLLIYRMSNLASGVPDRFSGSGSGTDFTLKISRVEAEDVGVYYCMQHLEYPLTFGQGTKLEIKR

IC50 (nM), Ca2+ influx by 200 nM hCCL1 [2]: 0.12 nM
B10: h10A11 IGKV4-1 N53Q, G29R/IGHV3-15 T94R (antibody, V domains shown)
VH: EVQLVESGGALVKPGGSLRLSCAASGFTFSTYALYWVRQAPGKGLEWVGRIRSKSNNYATYYADSVKDRFTISRDDSKNTLYLQMNSLKTEDTAVYYCTRARFYYSDYGYAMDYWGQGTLVTVSS
VL: DIVMTQSPDSLAVSLGERATINCRSSKSLLHSNRNTYLYWYQQKPGQPPKLLIYRMSQLASGVPDRFSGSGSGTDFTLTISSLQAEDVAVYYCMQHLEYPLTFGQGTKLEIKR

IC50 (nM), Ca2+ influx by 200 nM hCCL1 [2]: 0.29 nM
B11: h10A11 IGKV3-20 N53Q, N28K/IGHV3-15 T94R (antibody, V domains shown)
VH: EVQLVESGGALVKPGGSLRLSCAASGFTFSTYALYWVRQAPGKGLEWVGRIRSKSNNYATYYADSVKDRFTISRDDSKNTLYLQMNSLKTEDTAVYYCTRARFYYSDYGYAMDYWGQGTLVTVSS
VL: EIVLTQSPGTLSLSPGERATLSCRSSKSLLHSKGNTYLYWYQQKPGQAPRLLIYRMSQLASGIPDRFSGSGSGTDFTLTISRLEPEDFAVYYCMQHLEYPLTFGQGTKVEIKR
